Percent inhibition of ADAMTS-5 binding to LRP1 data for one substance are collected here from paper PMC5419085.

The test has as its target full-length human LRP1 (low-density lipoprotein receptor-related protein 1) (human). Kind of test: ELISA; full-length human LRP1 (5 nM) coated on microtiter plates; biotinylated ADAMTS-5-2 (6 nM) with or without antibodies or RAP (each 100 nM); detected by AP-conjugated streptavidin; TNC buffer, 2 h, room temperature; bound amount as % of that without antibodies or RAP. In general terms: An ELISA detects its analyte on a solid surface through an enzyme-linked reagent.

With “receptor-associated protein (RAP) (from UniProt P30533 35-357) (natural protein)”, the percent inhibition of ADAMTS-5 binding to LRP1 at 100 nM came to 75%.
